{"source": "patent US20240245799A1", "about": "“PREPARATION METHOD FOR ANTIBODY-DRUG CONJUGATE, AND APPLICATION” (priority 2021, published 2024)", "molecules": {"B1": {"name": "DS-1062a (conjugate, chains of the INN, looked up)", "VH": "QVQLVQSGAEVKKPGASVKVSCKASGYTFTTAGMQWVRQAPGQGLEWMGWINTHSGVPKYAEDFKGRVTISADTSTSTAYLQLSSLKSEDTAVYYCARSGFGSSYWYFDVWGQGTLVTVSS", "VL": "DIQMTQSPSSLSASVGDRVTITCKASQDVSTAVAWYQQKPGKAPKLLIYSASYRYTGVPSRFSGSGSGTDFTLTISSLQPEDFAVYYCQQHYITPLTFGQGTKLEIK", "modifications": "deruxtecan payload"}}, "key": {"[1]": {"tested_on": "NCI-H2170, LK-2 and MDA-MB-231 tumor cells", "experiment": "In vitro cytotoxic activity test, overall statements on the tumor cells of Table 1", "assay_type": "cell-based, human", "settings": "statement on Table 1", "procedure": "Human lung squamous carcinoma cell NCI-H2170 and LK-2, and human breast cancer cell MDA-MB-231 were selected as the cell lines for in vitro activity detection in this experiment. The expression profile of the TROP2 antigen on the surfaces of the above human tumor cells (represented by rMFI) was determined by flow cytometry (FACS). At the same time, the dose-effect profiles of Antibody Conjugate 13, DS-1062a (the control drug, prepared according to the method described in U.S. Ser. No. 11/173,213B2), the hIgG-deruxtecan conjugate and the hIgG-A-11 conjugate on cell killing were observed. The final concentrations of the antibody drug conjugates after addition were designed as a series of 9 concentrations from […] with 500 nM as the initial concentration. The changes in killing (or inhibition) over 120 hours were observed. Chemiluminescence staining (Luminescent Cell Viability Assay) was carried out, and IC50 was calculated after reading the […] data."}, "[2]": {"tested_on": "Human lung squamous carcinoma cells NCI-H2170", "experiment": "In vivo anti-tumor experiment, subcutaneous NCI-H2170 xenograft", "parameters": "species or system female nude mice", "settings": "single dose of 5 mg/kg intravenously on day 0, FIG. 28", "procedure": "The efficacy of the combination of the present invention can be measured in vivo, i.e., an allograft or xenograft of cancer cells was implanted in rodents, and the tumors were treated with the combination. Test mice were treated with drugs or controls and monitored for several weeks or longer to measure the time to tumor doubling, log cell killing, and tumor inhibition.\nHuman lung squamous carcinoma cells NCI-H2170 (ATCC) were suspended in physiological saline. 4×10^7 cells were subcutaneously transplanted into the right flank of female nude mice, which were randomized into groups on day 6. Taking the grouping day as day 0, Antibody Conjugate 13, DS-1062a (the positive control drug) and the hIgG-A-11 conjugate as a negative control group were administered intravenously to the tail at a dose of 5 mg/kg respectively on day 0."}}}
{"molecule": "B1", "values": [{"measurement": "inhibition of tumor cell proliferation / in vitro anti-tumor activity", "setting": "[1]", "result": "could inhibit tumor cell proliferation significantly"}, {"measurement": "in vivo anti-tumor activity", "setting": "[2]", "result": "showed anti-tumor activity"}]}
